Data taken from US20210395323A1 (UNIVERSIT T STUTTGART, published 2021).

T1: TNFR2 on human cells (Kym-1 cells; human CD3+ T cells) (human, UniProt P20333 23-461)
T1 sequence (looked up): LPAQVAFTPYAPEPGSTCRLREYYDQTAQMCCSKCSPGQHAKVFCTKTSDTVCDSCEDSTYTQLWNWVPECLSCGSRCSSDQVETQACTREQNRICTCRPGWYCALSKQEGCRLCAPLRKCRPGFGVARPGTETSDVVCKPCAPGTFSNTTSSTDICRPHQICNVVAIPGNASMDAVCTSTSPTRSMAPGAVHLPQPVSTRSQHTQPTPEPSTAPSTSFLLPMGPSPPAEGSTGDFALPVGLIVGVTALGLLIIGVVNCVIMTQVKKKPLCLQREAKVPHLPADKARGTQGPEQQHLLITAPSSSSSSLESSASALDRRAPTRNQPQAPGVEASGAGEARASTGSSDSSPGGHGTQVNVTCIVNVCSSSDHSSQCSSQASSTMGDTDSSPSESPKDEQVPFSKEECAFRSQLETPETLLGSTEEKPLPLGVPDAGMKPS

T2: TNFR2 on primary mouse cells (thymocytes and CD3+ T cells of C57BL/6 mice) (mouse, UniProt P25119 23-474)
T2 sequence (looked up): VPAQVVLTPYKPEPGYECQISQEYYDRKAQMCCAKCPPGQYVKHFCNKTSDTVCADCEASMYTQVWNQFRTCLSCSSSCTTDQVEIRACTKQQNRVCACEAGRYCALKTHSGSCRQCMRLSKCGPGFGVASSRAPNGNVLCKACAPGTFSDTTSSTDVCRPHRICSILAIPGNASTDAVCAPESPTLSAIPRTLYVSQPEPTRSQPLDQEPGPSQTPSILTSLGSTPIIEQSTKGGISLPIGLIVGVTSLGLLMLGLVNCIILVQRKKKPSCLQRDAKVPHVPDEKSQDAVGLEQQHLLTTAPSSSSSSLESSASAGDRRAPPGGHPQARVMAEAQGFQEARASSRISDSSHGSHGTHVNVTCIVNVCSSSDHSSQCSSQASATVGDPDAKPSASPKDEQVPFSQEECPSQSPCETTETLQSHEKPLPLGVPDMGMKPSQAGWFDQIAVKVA

T3: mouse TNFR2-Fc fusion protein (mouse, UniProt P25119 23-258, limits assumed)
T3 construct: also called mTNFR2-Fc; mTNFR2
T3 sequence (looked up): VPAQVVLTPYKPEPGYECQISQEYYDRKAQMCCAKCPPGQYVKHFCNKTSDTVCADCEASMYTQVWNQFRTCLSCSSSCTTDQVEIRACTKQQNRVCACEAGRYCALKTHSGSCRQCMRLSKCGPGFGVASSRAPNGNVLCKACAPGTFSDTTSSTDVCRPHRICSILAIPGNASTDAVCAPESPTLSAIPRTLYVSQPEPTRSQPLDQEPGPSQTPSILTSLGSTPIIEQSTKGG

T4: human TNFR2-Fc fusion protein (human, UniProt P20333 23-257)
T4 construct: also called huTNFR2-Fc; huTNFR2
T4 sequence (looked up): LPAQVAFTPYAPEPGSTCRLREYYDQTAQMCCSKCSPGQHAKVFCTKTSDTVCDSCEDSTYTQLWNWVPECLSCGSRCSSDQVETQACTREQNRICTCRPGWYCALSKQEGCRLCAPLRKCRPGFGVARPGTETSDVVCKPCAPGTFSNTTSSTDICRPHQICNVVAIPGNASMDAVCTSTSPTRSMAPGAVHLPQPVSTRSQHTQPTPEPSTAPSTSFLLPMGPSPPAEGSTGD

T5: TNFR2 on BV-2 cells (UniProt P25119 23-474, limits assumed)
T5 sequence (looked up): T2 sequence (looked up)

B1: p53-scTNFR2 (human) (ligand)
chain: KKPLDGEYFTLQIRGRERFEMFRELNEALELKDAQAGKEPGAPGGGSGGGSGGGSGGGSGGGSGGSEFLASSRTPSDKPVAHVVANPQAEGQLQWLNRRANALLANGVELRDNQLVVPSEGLYLIYSQVLFKGQGCPSTHVLLTHTISRIAVSYQTKVNLLSAIKSPCQRETPEGAEAKPWYEPIYLGGVFQLEKGDRLSAEINRPDYLNFRESGQVYFGIIALGGGGSSSRTPSDKPVAHVVANPQAEGQLQWLNRRANALLANGVELRDNQLVVPSEGLYLIYSQVLFKGQGCPSTHVLLTHTISRIAVSYQTKVNLLSAIKSPCQRETPEGAEAKPWYEPIYLGGVFQLEKGDRLSAEINRPDYLNFRESGQVYFGIIALGGGGSSSRTPSDKPVAHVVANPQAEGQLQWLNRRANALLANGVELRDNQLVVPSEGLYLIYSQVLFKGQGCPSTHVLLTHTISRIAVSYQTKVNLLSAIKSPCQRETPEGAEAKPWYEPIYLGGVFQLEKGDRLSAEINRPDYLNFRESGQVYFGIIAL
B2: p53-sc-mTNFR2 (mouse) (ligand)
chain: KKPLDGEYFTLQIRGRERFEMFRELNEALELKDAQAGKEPGAPGGGSGGGSGGGSGGGSGGGSGGSGIRSDKPVAHVVANHQVEEQLEWLSQRANALLANGMDLKDNQLVVPADGLYLVYSQVLFKGQGCPDYVLLTHTVSRFAISYQEKVNLLSAVKSPCPKDTPEGAELKPWYEPIYLGGVFQLEKGDQLSAEVNLPKYLNFRESGQVYFGVIALGGGGSSSDKPVAHVVANHQVEEQLEWLSQRANALLANGMDLKDNQLVVPADGLYLVYSQVLFKGQGCPDYVLLTHTVSRFAISYQEKVNLLSAVKSPCPKDTPEGAELKPWYEPIYLGGVFQLEKGDQLSAEVNLPKYLNFRESGQVYFGVIALGGGGSSSDKPVAHVVANHQVEEQLEWLSQRANALLANGMDLKDNQLVVPADGLYLVYSQVLFKGQGCPDYVLLTHTVSRFAISYQEKVNLLSAVKSPCPKDTPEGAELKPWYEPIYLGGVFQLEKGDQLSAEVNLPKYLNFRESGQVYFGVIAL
notes: Dodecavalent tetramer of four subunits
B3: GCN4-sc-mTNFR2 (mouse) (ligand)
chain: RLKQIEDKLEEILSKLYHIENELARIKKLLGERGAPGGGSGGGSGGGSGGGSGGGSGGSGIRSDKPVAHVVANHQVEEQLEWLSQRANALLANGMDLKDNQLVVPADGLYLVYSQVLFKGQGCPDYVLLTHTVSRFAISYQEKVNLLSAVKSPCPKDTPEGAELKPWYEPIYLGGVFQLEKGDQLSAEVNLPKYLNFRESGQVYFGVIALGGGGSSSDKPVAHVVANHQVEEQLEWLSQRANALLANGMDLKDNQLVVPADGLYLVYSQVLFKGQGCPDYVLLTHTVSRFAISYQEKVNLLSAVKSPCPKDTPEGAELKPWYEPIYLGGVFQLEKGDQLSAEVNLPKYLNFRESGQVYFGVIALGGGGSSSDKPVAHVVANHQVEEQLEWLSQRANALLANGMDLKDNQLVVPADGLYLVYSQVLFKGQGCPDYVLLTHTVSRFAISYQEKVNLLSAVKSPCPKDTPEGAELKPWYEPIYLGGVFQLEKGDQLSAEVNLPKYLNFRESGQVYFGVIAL
notes: as for B2
B4: EHD2-sc-mTNFR2 (mouse) (ligand)
chain: DFTPPTVKILQSSCDGGGHFPPTIQLLCLVSGYTPGTINITWLEDGQVMDVDLSTASTTQEGELASTQSELTLSQKHWLSDRTYTCQVTYQGHTFEDSTKKCADSNGGGSGGGSGGGSGGGSGGGSGGSGIRSDKPVAHVVANHQVEEQLEWLSQRANALLANGMDLKDNQLVVPADGLYLVYSQVLFKGQGCPDYVLLTHTVSRFAISYQEKVNLLSAVKSPCPKDTPEGAELKPWYEPIYLGGVFQLEKGDQLSAEVNLPKYLNFRESGQVYFGVIALGGGGSSSDKPVAHVVANHQVEEQLEWLSQRANALLANGMDLKDNQLVVPADGLYLVYSQVLFKGQGCPDYVLLTHTVSRFAISYQEKVNLLSAVKSPCPKDTPEGAELKPWYEPIYLGGVFQLEKGDQLSAEVNLPKYLNFRESGQVYFGVIALGGGGSSSDKPVAHVVANHQVEEQLEWLSQRANALLANGMDLKDNQLVVPADGLYLVYSQVLFKGQGCPDYVLLTHTVSRFAISYQEKVNLLSAVKSPCPKDTPEGAELKPWYEPIYLGGVFQLEKGDQLSAEVNLPKYLNFRESGQVYFGVIAL
notes: Hexavalent dimer of two subunits; also called hexavalent (EHD2-sc-mTNFR2)
B5: mouse single-chain TNF variant (D221N/A223R, sc-mTNFR2) (ligand)
chain: SDKPVAHVVANHQVEEQLEWLSQRANALLANGMDLKDNQLVVPADGLYLVYSQVLFKGQGCPDYVLLTHTVSRFAISYQEKVNLLSAVKSPCPKDTPEGAELKPWYEPIYLGGVFQLEKGDQLSAEVNLPKYLNFRESGQVYFGVIALGGGGSSSDKPVAHVVANHQVEEQLEWLSQRANALLANGMDLKDNQLVVPADGLYLVYSQVLFKGQGCPDYVLLTHTVSRFAISYQEKVNLLSAVKSPCPKDTPEGAELKPWYEPIYLGGVFQLEKGDQLSAEVNLPKYLNFRESGQVYFGVIALGGGGSSSDKPVAHVVANHQVEEQLEWLSQRANALLANGMDLKDNQLVVPADGLYLVYSQVLFKGQGCPDYVLLTHTVSRFAISYQEKVNLLSAVKSPCPKDTPEGAELKPWYEPIYLGGVFQLEKGDQLSAEVNLPKYLNFRESGQVYFGVIAL
notes: Trivalent single chain; also called TNFR2-selective mouse TNF variant; trivalent (sc-mTNFR2)

target: T1, TNFR2 on human cells (Kym-1 cells; …); assay: cell-based or functional assay

| Binder | EC50 values (nM) of cell death induction using Kym-1 cells [nM] |
| --- | --- |
| B1 | 0.0106 |
| B2 | 0.0562 |
| B3 | 0.0057 |
| B4 | 0.453 |

target: T2, TNFR2 on primary mouse cells …; assay: cell-based or functional assay

| Binder | EC50 values (nM) of thymocyte proliferation induction (MTT assay) [nM] |
| --- | --- |
| B2 | 0.065 |
| B3 | 0.0185 |
| B4 | 0.07 |

target: T3, mouse TNFR2-Fc fusion protein; assay: ELISA, mTNFR2-Fc coated at 1 µg/ml, bound protein detected with anti-TNF F6C5
Method: (§1) ELISA plates (Greiner, Frickenhausen, Germany) were coated with huTNFR1-Fc, mTNFR1-Fc, huTNFR2-Fc or mTNFR2-Fc fusion proteins at 1 μg/ml in PBS and incubated at 4° C. overnight. Residual binding sites were blocked with 2% skim milk powder in PBS at RT for 2 hours. ScTNFR2 and the complexes were diluted in 2% skim milk powder in PBS and added at concentrations in the range of 10⁻³ to 10 nM and incubated for 1 hour at RT. Between each step, non-bound proteins were removed by washing 4 times with 0.005% Tween-20 in PBS.
(§2) Bound proteins were detected with mouse monoclonal antibodies to TNF (clone F6C5; 1 μg/ml; incubation for 1 hour at RT) and HRP-conjugated anti-mouse IgG antibodies (diluted 1:10000; incubation for 1 hour at RT), followed by incubation with tetramethylbenzidine (TMB) substrate solution. Reaction was stopped by addition of 1 M H₂SO₄ and the absorbance at 450 nm was determined with a Multiskan FC absorbance reader (Thermo Scientific, Karlsruhe, Germany) and data were analyzed using the software Microsoft Excel and GraphPad Prism 4 (GraphPad, La Jolla, Calif.) (FIG. 5). In Table 3, the calculated EC₅₀ values for the binding of TNF, scTNFR2 and the complexes to immobilized huTNFR2 and mTNFR2 based on the ELISA assay are summarized.

| Binder | EC50 [pM] |
| --- | --- |
| B5 | 1550 |
| B2 | 74.4 |
| B3 | 45.2 |
| B4 | 112 |

target: T4, human TNFR2-Fc fusion protein; assay: ELISA, huTNFR2-Fc coated at 1 µg/ml, bound protein detected with anti-TNF F6C5
Method: as §1, §2

| Binder | EC50 [pM] |
| --- | --- |
| B1 | 94 |

target: T5, TNFR2 on BV-2 cells; assay: cell-based or functional assay

| Binder | EC50 values (nM) of Cxcl-2 secretion (BV-2 cells, ELISA) [nM] |
| --- | --- |
| B5 | 1.07 |
| B2 | 0.13 |
| B3 | 0.03 |
| B4 | 0.44 |

target: T4, human TNFR2-Fc fusion protein; assay: quartz crystal microbalance (Attana Cell 200), human TNFR2-Fc immobilised at high density (270 Hz), 37° C
Method: (§3) Affinities of scTNFR2 and the complexes for human TNFR2-Fc were further determined by quartz crystal microbalance measurements using an Attana Cell 200 (Attana, Stockholm, Sweden). Human TNFR2-Fc was chemically immobilized on a carboxyl sensor chip according to the manufacturer's protocol at a high and low density, respectively. Binding experiments were performed in PBST buffer (PBS, 0.1% Tween 20, pH 7.4) with a flow rate of […] at 37° C. The chip was regenerated with 10 mM Glycine-HCl, pH 2.0. Before each measurement, a baseline was measured which was subtracted from the binding curve. Data were collected using the software provided by Attana for the particular device and analyzed by Attaché Office Evaluation software (Attana, Stockholm, Sweden) and TraceDrawer (Ridgview Instruments, Vange, Sweden) (FIG. 6). In Table 4, binding values for the binding of the hexavalent and dodecavalent mouse complexes to TNFR2 are summarized, which have been calculated based on quartz crystal microbalance measurements on a low density chip. In Table 5, binding values for the binding of the sc-mTNFR2 and the hexavalent and dodecavalent mouse proteins to TNFR2 are summarized, which have been calculated based on quartz crystal microbalance measurements on a high density chip.

| Binder | Kd [pM] | koff [s⁻¹] | kon [M⁻¹ s⁻¹] |
| --- | --- | --- | --- |
| B5 | 449 | 0.000399 | 808000 |
| B2 | 43.7 | 2.69e-05 | 616000 |
| B3 | 52.7 | 8.77e-05 | 1.67e+06 |
| B4 | 61.5 | 3.74e-05 | 607000 |

target: T4, human TNFR2-Fc fusion protein; assay: quartz crystal microbalance (Attana Cell 200), human TNFR2-Fc immobilised at low density (130 Hz), 37° C
Method: as §3

| Binder | Kd [pM] | koff [s⁻¹] | kon [M⁻¹ s⁻¹] |
| --- | --- | --- | --- |
| B2 | 50900 | 0.0651 | 1.28e+06 |
| B3 | 16100 | 0.0347 | 2.16e+06 |
| B4 | 118000 | 0.063 | 533000 |
